Key:
Test in all cases: thermodynamic integration MD simulation (TIMD; computed, not an experimental measurement)
[1] = molecular target: rat gephyrin E-domain (amino acids 318-736) D664N (other chain of the homodimer); conditions: E-domain dimer; value per mutation point; read off a plot
[2] = molecular target: rat gephyrin E-domain (amino acids 318-736) G375D (other chain of the homodimer); conditions: E-domain dimer; value per mutation point; read off a plot
[3] = molecular target: rat gephyrin E-domain (amino acids 318-736) G545A (other chain of the homodimer); conditions: E-domain dimer; value per mutation point; read off a plot
[4] = molecular target: rat gephyrin E-domain (amino acids 318-736) G545S (other chain of the homodimer); conditions: E-domain dimer; value per mutation point; read off a plot
[5] = molecular target: rat gephyrin G-domain (amino acids 1-188) A91T (other chains of the homotrimer); conditions: G-domain trimer; value per mutation point; read off a plot
[6] = molecular target: rat gephyrin G-domain (amino acids 1-188) V43L (other chains of the homotrimer); conditions: G-domain trimer; value per mutation point; read off a plot

A ddG [1] of -0.7 kcal/mol was found for “rat gephyrin E-domain WT (amino acids 318-736) D664N” in this work.
A ddG [2] of 5.7 kcal/mol was found for “rat gephyrin E-domain WT (amino acids 318-736) G375D” in this work.
A ddG [3] of 0.3 kcal/mol was found for “rat gephyrin E-domain WT (amino acids 318-736) G545A” in this work.
A ddG [4] of 0.2 kcal/mol was found for “rat gephyrin E-domain WT (amino acids 318-736) G545S” in this work.
A ddG [5] of 1.7 kcal/mol was found for “rat gephyrin G-domain WT (amino acids 1-188) A91T” in this work.
A ddG [6] of -0.95 kcal/mol was found for “rat gephyrin G-domain WT (amino acids 1-188) V43L” in this work.
